According to paper PMC3834822:

Target: full-length ParE-ParC55 fusion protein of S. pneumoniae topoisomerase IV (Streptococcus pneumoniae) (UniProt Q59961)
Test: crystal structure; full-length ParE-ParC55 fusion protein with 34 bp V-site DNA (1:2.2 protein:DNA), MgCl2; sitting drop, 50 mM sodium citrate pH 5.0, 4-7% isopropanol; space group P4(2)2(1)2, 3.7 Å; no ATP

full-length ParE-ParC55 fusion protein of S. pneumoniae topoisomerase IV (from UniProt Q59961 1-647; P72525 1-488) (enzyme)
stoichiometry N: 2
